Key:
Settings in all cases: both partners purified
[1] = biological target: T1, norovirus GII.17 P‐domain (Norovirus GII.17, GenBank AKI30060 …, strain); experiment: SPR; Biacore 8K; P-domain immobilised on CM5 by amine coupling, antibody as analyte; PBST, 30 uL/min, 180 s association, 600 s dissociation; 1:1 kinetic model
T1 construct: Cloned into a modified pMAL-c6T vector; also called P‐domain of GII.17 strain; norovirus P‐domain GII.17 strain; source: E. coli BL21 (DE3), purified (Ni-NTA Agarose, SEC Superdex 75)
T1 chain: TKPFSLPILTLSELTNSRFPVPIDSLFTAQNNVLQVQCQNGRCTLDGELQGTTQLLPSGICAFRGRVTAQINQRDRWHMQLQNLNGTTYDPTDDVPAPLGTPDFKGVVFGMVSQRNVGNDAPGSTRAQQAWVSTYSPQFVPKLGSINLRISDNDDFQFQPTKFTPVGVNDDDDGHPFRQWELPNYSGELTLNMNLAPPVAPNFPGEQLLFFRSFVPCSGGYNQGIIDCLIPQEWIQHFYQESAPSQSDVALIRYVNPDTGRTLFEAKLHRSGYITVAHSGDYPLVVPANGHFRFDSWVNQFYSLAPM

[2] = biological target: T1, norovirus GII.17 P‐domain; experiment: SPR; Biacore 8K; antibody immobilised, P-domain as analyte; 1:1 kinetic model
[3] = biological target: T1, norovirus GII.17 P‐domain; experiment: SPR; GII.17 P-domain immobilised on CM5 at 1059 r.u., antibody as analyte; PBST; 1:1 kinetic model
[4] = biological target: T1, norovirus GII.17 P‐domain; experiment: SPR; GII.17 P-domain immobilised on CM5 at 3830 r.u., antibody as analyte; PBST; 1:1 kinetic model
[5] = biological target: T1, norovirus GII.17 P‐domain; experiment: SPR; GII.17 P-domain immobilised on CM5 at 458 r.u., antibody as analyte; PBST; 1:1 kinetic model
[6] = biological target: T1, norovirus GII.17 P‐domain; experiment: SPR; GII.17 P-domain immobilised on CM5 at 4577 r.u., antibody as analyte; PBST; 1:1 kinetic model
[7] = biological target: T1, norovirus GII.17 P‐domain; experiment: SPR; GII.17 P-domain immobilised on CM5 at 922 r.u., antibody as analyte; PBST; 1:1 kinetic model
[8] = biological target: T1, norovirus GII.17 P‐domain; experiment: SPR; GII.17 P-domain immobilised on CM5 at 138 r.u., antibody as analyte; PBST; 1:1 kinetic model

B1: 14C2 IgG (antibody, V domains shown)
VH: QAYLQQSGAELMKPGASMRISCKATGYTFSNYWIEWVKQRPGHGLEWIGEILPGGGGTDYNEKFKGKATFTADTSSNTAYMQLSSLTSEDSAVYYCARSTFYGYDGGLYYFPMDYWGQGTSVTVSP
VL: DIVMTQSPAIMSASPGEKVTMTCSTNSSISYMHWYQQKPGTSPKRWIYDTSKLASGVPARFSGSGSGTSYSLTISSMEAEDAATYYCHQRSSYPWTFGGGTKLEIK
notes: variable domain of the heavy chain of 14C2; light chain of 14C2; Mouse IgG2b; also called IgG antibody 14C2; source: mouse hybridoma supernatant, purified (HiTrap Protein G HP, SEC Superdex 200); copies: 2 + 2
Kd [1]: 0.921 pM
koff [1]: 1.07e-07 s⁻¹
kon [1]: 116000 M⁻¹ s⁻¹
Kd [2]: 1.55 nM
koff [2]: 0.000129 s⁻¹
kon [2]: 82900 M⁻¹ s⁻¹

B2: 1‐arm IgG (Fab region of IgG antibody 14C2) (Fab, V domains shown)
VH: QAYLQQSGAELMKPGASMRISCKATGYTFSNYWIEWVKQRPGHGLEWIGEILPGGGGTDYNEKFKGKATFTADTSSNTAYMQLSSLTSEDSAVYYCARSTFYGYDGGLYYFPMDYWGQGTSVTVSP
VL: DIVMTQSPAIMSASPGEKVTMTCSTNSSISYMHWYQQKPGTSPKRWIYDTSKLASGVPARFSGSGSGTSYSLTISSMEAEDAATYYCHQRSSYPWTFGGGTKLEIK
notes: Fab region of the heavy chain of 14C2; light chain of 14C2; gene codon-optimised for mammalian cells; also called 14C2 Fab; source: Expi293 cells, purified (Ni-NTA Agarose, SEC Superdex 75); not shown: His tag (inferred from the Ni-NTA purification)
Kd [3]: 204 nM
koff [3]: 0.00297 s⁻¹
kon [3]: 14600 M⁻¹ s⁻¹
Kd [4]: 135 nM
koff [4]: 0.0034 s⁻¹
kon [4]: 25100 M⁻¹ s⁻¹
Kd [5]: 241 nM
koff [5]: 0.00246 s⁻¹
kon [5]: 10200 M⁻¹ s⁻¹
Kd [6]: 167 nM
koff [6]: 0.0026 s⁻¹
kon [6]: 15600 M⁻¹ s⁻¹
Kd [7]: 281 nM
koff [7]: 0.0024 s⁻¹
kon [7]: 8550 M⁻¹ s⁻¹
Kd [8]: 170 nM
koff [8]: 0.0025 s⁻¹
kon [8]: 14700 M⁻¹ s⁻¹

— publication PMC13140594, “Characterization of high affinity IgM and IgG monoclonal antibodies against norovirus variants GII.4 and GII.17” (Protein Science : A Publication of the Protein Society, 2026)
